Key:
SIRPA_V1_IgV = biological target: T1, SIRPA_V1_IgV (human, UniProt P78324 31-149); experiment: SPR Biacore T200, antibody captured on anti-human IgG (Fc), SIRPA_V1_IgV as analyte (0.25 to 16 nM), 1:1 model
T1 construct: Secreted recombinant protein from FreeStyle 293F cells
Description: (§1) The dissociation constants were measured by a capture method comprising capturing each antibody as a ligand to an Anti-Human IgG (Fc) antibody immobilized using Human Antibody Capture Kit (GE Healthcare Bioscience Corp.) and measuring an antigen as an analyte, using Biacore T200 (GE Healthcare Bioscience Corp.). HBS-EP+ (GE Healthcare Bioscience Corp.) was used as a running buffer, and CM5 (GE Healthcare Bioscience Corp.) was used as a sensor chip. Onto the chip, 2 μg/mL of various antibodies were added at 10 μL/min for 30 seconds, then a serially diluted solution (0.25 to 16 nM) of the human SIRPA protein as an antigen was added at a flow rate of 30 μL/min for 120 seconds, and subsequently the dissociation phase for 600 seconds was monitored. As a regenerant, 3 M magnesium chloride (GE Healthcare Bioscience Corp.) was added at a flow rate of 20 μL/min for 30 seconds. For data analysis, a binding rate constant (ka), a dissociation rate constant (kd), and a dissociation constant (KD; KD=kd/ka) were calculated using a 1:1 binding model.

SIRPA_V2_IgV = biological target: T2, SIRPA_V2_IgV (human); experiment: SPR Biacore T200, antibody captured on anti-human IgG (Fc), SIRPA_V2_IgV as analyte (0.25 to 16 nM), 1:1 model
T2 construct: Secreted recombinant protein; The crystal model held residues 33 to 143 of human SIRPA Variant 2
Description: as §1

human SIRPA_V1 protein = biological target: T3, human SIRPA_V1 protein (human, UniProt P78324 31-504); experiment: blocking cell-based ELISA: peroxidase-labeled CD47-Fc (1 µg/mL) on 293α cells expressing SIRPA_V1
T3 construct: Expressed on 293α cells from pcDNA3.2 V5-DEST or pFLAG V5-DEST (FLAG-tagged) vectors; also called human SIRPA Variant 1; hSIRPA V1
Description: (§2) After the culture supernatant of the human SIRPA_V1 or V2 expression vector-introduced 293 cells prepared in Example 9)-1 was removed, 50 μL per well of various anti-SIRPA antibodies or various control Human IgG diluted with 5% FBS-containing PBS to a final concentration of 0 to 10,000 ng/ml was added to each of pcDNA3.2 V5-DEST-SIRPA_V1 or V2-introduced 293α cells, immediately followed by addition of 50 µL per well of peroxidase-labeled CD47-Fc prepared with 5% FBS-containing PBS at 1 μg/mL, and the mixture was allowed to stand at 4° C. for one hour. Thereafter, the SIRPA-CD47 binding inhibitory activity was evaluated in the same manner as in 1)-6-3.

human SIRPA_V2 protein = biological target: T4, human SIRPA_V2 protein (human, UniProt P78324 31-504); experiment: blocking cell-based ELISA: peroxidase-labeled CD47-Fc (1 µg/mL) on 293α cells expressing SIRPA_V2
T4 construct: Expressed on 293α cells from pcDNA3.2 V5-DEST or pFLAG V5-DEST (FLAG-tagged) vectors; also called human SIRPA Variant 2; ECD variant (full-length, amino acids 1 to 504)
Description: as §2

human SIRPB = biological target: T5, human SIRPB (human, UniProt O00241 30-398); experiment: flow cytometry on CHO-K1 cells expressing FLAG-tagged human SIRPB; PE anti-human IgG; MFI standardized to secondary antibody alone
T5 construct: whole, on cells; FLAG-tagged (pFLAG V5-DEST), on CHO-K1 cells; also called SIRPβ1; signal regulatory protein β1
Description: SIRPβ1 (signal regulatory protein β1: the amino acid sequence thereof is published as RefSeq accession number NP_006056) and SIRPγ (signal regulatory protein γ: the amino acid sequence thereof is published as RefSeq accession number NP_061026) are molecules belonging to the SIRPA family. In the present invention, “SIRPα” may be referred to as “SIRPA,” “SIRPβ1” may be referred to as […] and “SIRPγ” may be referred to as “SIRPG.” CHO-K1 cells were prepared in a 10% FBS-containing Ham's F-12K medium at 3.3×10⁵ cells/mL and cultured overnight at 37° C. under a 5% CO₂ condition. pFLAG V5-DEST-human SIRPβ, pFLAG V5-DEST-human SIRPG, or pFLAG V5-DEST was introduced into the cells using Lipofectamine LTX (Invitrogen), and cells were cultured in a 10% FBS-containing Ham's F-12K medium at 37° C. under a 5% CO₂ condition for 24 hours. The obtained introduced cells were collected and seeded on a 96-well plate. After the culture supernatant was removed, 100 μL per well of various anti-human SIRPA antibodies or various control human IgG was added to each of various gene introduced cells at a final concentration of 0 to 10,000 ng/mL, and the mixture was allowed to stand at 4° C. for 25 minutes. After the mixture was centrifuged, the supernatant was removed, and cells were washed twice with 5% FBS-containing PBS. After the mixture was centrifuged, the supernatant was removed, 50 μL per well of a 1/400 diluted solution of PE Mouse anti-Human IgG antibody (BioLegend) was added, and the mixture was allowed to stand at 4° C. for 25 minutes. After the mixture was centrifuged, the supernatant was removed, and cells were washed twice with 5% FBS-containing PBS.
(§3) After the mixture was centrifuged, and the supernatant was removed, cells were suspended in 100 μL per well of 1× BD Stabilizing Fixative (Becton Dickinson), and the cell count was measured by flow cytometry (FACS Canto II: Becton Dickinson). For data analysis, FlowJo (TreeStar) was used. Cells were characterized by detecting forward scattered (FSC) light and side-scattered (SSC) light, and then the mean fluorescence intensity of PE was calculated. Binding of various antibodies to the family molecules was calculated by standardizing the fluorescence intensity using the mean fluorescence intensity of a sample in which the secondary antibody alone was allowed to react.

human SIRPG = biological target: T6, human SIRPG (human, UniProt Q9P1W8 29-387); experiment: flow cytometry on CHO-K1 cells expressing FLAG-tagged human SIRPG; PE anti-human IgG; MFI standardized to secondary antibody alone
T6 construct: whole, on cells; FLAG-tagged (pFLAG V5-DEST), on CHO-K1 cells; also called SIRPγ; signal regulatory protein γ
Description: SIRPβ1 (signal regulatory protein β1: the amino acid sequence thereof is published as RefSeq accession number NP_006056) and SIRPγ (signal regulatory protein γ: the amino acid sequence thereof is published as RefSeq accession number NP_061026) are molecules belonging to the SIRPA family. In the present invention, “SIRPα” may be referred to as “SIRPA,” “SIRPβ1” may be referred to as […] and “SIRPγ” may be referred to as “SIRPG.” CHO-K1 cells were prepared in a 10% FBS-containing Ham's F-12K medium at 3.3×10⁵ cells/mL and cultured overnight at 37° C. under a 5% CO₂ condition. pFLAG V5-DEST-human SIRPβ, pFLAG V5-DEST-human SIRPG, or pFLAG V5-DEST was introduced into the cells using Lipofectamine LTX (Invitrogen), and cells were cultured in a 10% FBS-containing Ham's F-12K medium at 37° C. under a 5% CO₂ condition for 24 hours. The obtained introduced cells were collected and seeded on a 96-well plate. After the culture supernatant was removed, 100 μL per well of various anti-human SIRPA antibodies or various control human IgG was added to each of various gene introduced cells at a final concentration of 0 to 10,000 ng/mL, and the mixture was allowed to stand at 4° C. for 25 minutes. After the mixture was centrifuged, the supernatant was removed, and cells were washed twice with 5% FBS-containing PBS. […]
as §3, with “For data analysis, FlowJo (TreeStar) was used.” left out

T4 sequence (P78324 other isoform, or with tags, fused parts or gaps limits assumed): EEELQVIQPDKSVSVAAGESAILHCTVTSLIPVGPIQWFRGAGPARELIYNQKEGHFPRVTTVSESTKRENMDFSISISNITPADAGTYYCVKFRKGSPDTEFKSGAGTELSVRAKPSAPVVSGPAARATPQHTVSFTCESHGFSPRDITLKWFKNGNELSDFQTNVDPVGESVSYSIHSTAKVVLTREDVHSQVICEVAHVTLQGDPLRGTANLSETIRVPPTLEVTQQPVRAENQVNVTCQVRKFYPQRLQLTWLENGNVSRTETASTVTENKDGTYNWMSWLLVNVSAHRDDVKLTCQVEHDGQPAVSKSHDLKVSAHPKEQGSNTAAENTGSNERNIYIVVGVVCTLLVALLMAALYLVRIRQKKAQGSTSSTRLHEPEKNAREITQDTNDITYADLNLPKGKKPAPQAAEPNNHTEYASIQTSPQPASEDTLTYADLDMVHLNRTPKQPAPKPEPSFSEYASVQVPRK
T3 sequence (P78324 31-504 limits assumed): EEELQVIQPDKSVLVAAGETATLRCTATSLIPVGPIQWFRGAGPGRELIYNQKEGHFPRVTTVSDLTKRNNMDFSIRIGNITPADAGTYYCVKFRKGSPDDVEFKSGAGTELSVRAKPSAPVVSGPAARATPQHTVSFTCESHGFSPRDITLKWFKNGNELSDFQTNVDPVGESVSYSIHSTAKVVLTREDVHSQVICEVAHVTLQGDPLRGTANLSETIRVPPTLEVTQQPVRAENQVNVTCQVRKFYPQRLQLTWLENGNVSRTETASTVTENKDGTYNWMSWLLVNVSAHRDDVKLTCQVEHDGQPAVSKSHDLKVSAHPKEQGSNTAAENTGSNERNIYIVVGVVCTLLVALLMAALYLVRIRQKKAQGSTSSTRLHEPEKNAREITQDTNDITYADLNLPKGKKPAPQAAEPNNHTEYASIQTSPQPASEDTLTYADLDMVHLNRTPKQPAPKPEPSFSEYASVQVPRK
T6 sequence (Q9P1W8 29-387): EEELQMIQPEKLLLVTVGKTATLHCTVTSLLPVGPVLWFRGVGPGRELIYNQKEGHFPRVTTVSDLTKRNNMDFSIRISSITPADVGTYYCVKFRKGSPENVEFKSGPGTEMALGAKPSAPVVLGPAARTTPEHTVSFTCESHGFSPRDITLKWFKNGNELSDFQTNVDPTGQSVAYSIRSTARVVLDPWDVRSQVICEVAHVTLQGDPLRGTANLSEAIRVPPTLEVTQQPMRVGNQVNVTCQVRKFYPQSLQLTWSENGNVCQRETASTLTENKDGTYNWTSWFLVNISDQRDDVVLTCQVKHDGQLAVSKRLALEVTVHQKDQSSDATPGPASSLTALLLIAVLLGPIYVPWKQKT
T1 sequence (P78324 other isoform, or with tags, fused parts or gaps limits assumed): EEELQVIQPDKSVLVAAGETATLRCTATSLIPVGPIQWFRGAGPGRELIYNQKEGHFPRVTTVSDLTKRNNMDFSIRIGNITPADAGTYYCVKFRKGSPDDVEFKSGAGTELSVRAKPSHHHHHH
T2 sequence (chain, as listed by the source limits assumed): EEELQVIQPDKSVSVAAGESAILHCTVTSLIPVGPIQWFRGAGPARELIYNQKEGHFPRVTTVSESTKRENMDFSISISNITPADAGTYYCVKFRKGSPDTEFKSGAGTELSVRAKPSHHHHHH
T5 sequence (O00241 30-398): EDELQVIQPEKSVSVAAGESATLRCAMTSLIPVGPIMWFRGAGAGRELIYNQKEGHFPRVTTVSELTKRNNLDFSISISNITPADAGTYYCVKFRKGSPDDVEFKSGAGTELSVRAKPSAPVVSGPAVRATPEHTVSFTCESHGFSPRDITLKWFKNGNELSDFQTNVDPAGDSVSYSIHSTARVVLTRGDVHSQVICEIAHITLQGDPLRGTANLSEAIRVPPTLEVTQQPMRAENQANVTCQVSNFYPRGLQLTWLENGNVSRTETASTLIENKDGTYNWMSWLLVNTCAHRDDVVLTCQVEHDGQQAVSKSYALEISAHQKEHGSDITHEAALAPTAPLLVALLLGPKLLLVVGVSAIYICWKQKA

Kd (SIRPA_V1_IgV): 4.39 nM
Kd (SIRPA_V2_IgV): 6.32 nM
IC50 (human SIRPA_V1 protein): 2.97 µg/mL
IC50 (human SIRPA_V2 protein): 2.12 µg/mL
EC50 (read off the curve) (human SIRPB): ~0.2 µg/mL
binding result (human SIRPG): binds
B1: ADU-1805 (antibody, human IgG2, kappa, V domains shown)
VH: EVQLVQSGAEVVKPGASVKLSCKASGSTFTSYWMHWVKQAPGQGLEWIGAIYPVNSDTTYNQKFKGKATLTVDKSASTAYMELSSLRSEDTAVYYCTRSFYYSLDAAWFVYWGQGTLVTVSS
VL: DIQMTQSPSSLSASVGDRVTITCRASQDIGSRLNWLQQKPGKAPKRLIYATSSLDSGVPSRFSGSGSGTEFTLTISSLQPEDFATYYCLQYASSPFTFGGGTKVEIKR
notes: IgG2 heavy chain; also called ADU-1805_hG2 / ADU-1805_hK

Reference: patent US20260098102A1 (NATIONAL UNIVERSITY CORPORATION KOBE UNIVERSITY, published 2026)
